The values below come from the nanobody polyreactivity screen of Harvey et al. (2022).

The nature of the data set: yeast display, Sf9 membrane polyspecificity reagent, FACS + sequencing; frameworks hold sequencing errors. In a few lines: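 Synthetic nanobody libraries on Saccharomyces cerevisiae BJ5465 were galactose-induced for 36–48 hours, stained 1 hour at 4 °C with 10% biotinylated, detergent-solubilized Sf9 membrane reagent and enriched on streptavidin microbeads. FACS then separated cells into low and high (top ~1%) gates by anti-HA (expression) and streptavidin (reagent binding) fluorescence. Genes were colony-PCR amplified, MiSeq 2 × 250 sequenced and CDR-length filtered. A clone's polyreactivity label is that of its gate of origin.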
With “QVQLEESGGGLVQAGCSLRLSCAASGRIFHFYAIGRYRQAPGKERELVAVINGGGSTYYADSVKGRFTISRDNAKNTVYLQMNSLKPEVTAVYYCAADVYLSRYEKYGYWGQGTQVTVSS”, the “polyreactivity (PSR sort gate)” value was “high polyreactivity”.
As for “QVQLEESGGGLVQAGGSLRLSCAASGFTFRRYAMGWYRQAPGKERELVAVITTAGYTNYADSVKGRFTISRDNAKNSVYLQMNSLKPEDTAVYYCATDNGTRKRRYDYWGQGTQVTVSS”, the “polyreactivity (PSR sort gate)” value is given as “low polyreactivity”.
As for “LVQLVESGGGLVQAGGSLRLSCAASGRIFLKYAMGWYRQSPGKERELVAAISRRGASTYYADSVKGRFTISRDYGKNSVYLLMKSLKPDDTAVYYCNARTSSGMDYWGQGTQVTVSS”, the “polyreactivity (PSR sort gate)” value is on record as “high polyreactivity”.
As to “QVQLVESGGGLVQAGGSLRLSCAASGFTFDDNAMGWYRQAPGKERELVATISYSDGNTYYADSVKGRFTISRDNAKNTVYLQMNSLIPEDTAVYYCAADDWAVYYIGLDYDYWGQGTQVTVSS”, the “polyreactivity (PSR sort gate)” value is on record as “low polyreactivity”.
With “QVQLVESGGGLVQAGGSLRLSCAASGSILNRYAMGWYRQAPGKERELVAAISRRSGSTYYADSVKGRFTISRDNAKNTVYLQMNSLKPEDTAVYYCAATSSLGDFRYDYWGQGTQVTVSS”, the “polyreactivity (PSR sort gate)” value is on record as “high polyreactivity”.
As for “QVQLVESGGGLVQAGGSLRLSCAASGFISNDNAMGWYRQAPGKERELVATIDISDASTYYADSVKGRFTISRDNAKNTVYLQMNSLKPEDTAVYYCAAESDEWFTWYWYGYWGQGTQVTVSS”, the “polyreactivity (PSR sort gate)” value is recorded as “low polyreactivity”.
Take “QGQLVESGGGLVQAGGSLRLSCAASGRTFYLNAMGWYRQAPGKERELVAAINRGTRTYYADSVKGRFTISRDNAKNTVFLQMNSLKPDETAVYYCASVPRYYYSSSYTMDYWGQGTQVTVSS”: the “polyreactivity (PSR sort gate)” value was “high polyreactivity”.
Take “QVQLGESGGGLVQAGGSLRLSCAASGFIFRAYAMGWYRQAPGKERELVASISSRGGSTYYADSVKGRFTISRDNAKNTVYLQMNSLKPEDTAVYYCNAVYTYFPGWKYDYWGQGTQVTVSS”: the “polyreactivity (PSR sort gate)” value is on record as “high polyreactivity”.
To “QVHLVESGGGLVQAGGSLRLSCAGSGRTFRYYAMGWYGQAPGKERELVAAISVRTGSTSDADSVKGRFTISRDNAKNTVYLQMNSLNPEDTAVYYCAATSRYFQPPGYGGGRIGYGYWGQGTQVTVSS” belongs “high polyreactivity”; to “QVQLVESGGGLVQAGGSLRLSCAASGSIFLASAMGWYRQAPGKERELVAAITAGTGSTYYADSVKGRFTISRDNAKNTVYLQMNSLKPEDTAVYYCAKAVSLFRGPFSSFDYWGQGTQVTVSS”, “low polyreactivity”; to “QVQLVESGGGLVQAGGSLRLTCAASGRIFSFNAMVSYRKATGKERELVATIRTDGTTNYADSVKGRFTISRDNAKNTVYLQMNSMKPEDTAVYYCATDSGWSTYDFWGQGTQVTVSS”, “high polyreactivity”.
To “QVQLVESGGGLVQAGGSLRLSCAATGSTFDRYGMGWYRQAPGKERELVAAINSGDITNYADSVKGRFTISRDNAKNTVYLQMNSLKPEDTAVYYCNAGIRYFVVGRSSYDYWGQGTQVTVSS” belongs “low polyreactivity”; to “QVQLVESGGGLVQAGGSLRLSCAASGRIFGAYAMGWYRQAPGKEREWVAVINWRSGGTYYADSVKGRFTISRDNAKNTVYLQMNSLKPVDTAVYYCAADDYGFFSAGDFDYWGHGTQVTVSS”, “high polyreactivity”.
With “QVQLVESGGGLVQAGGSLRLSCAASGRIFGYYAMGWYIQAPGKERELVAAINWRGGNTNYADSVKGRFTISRDNAKNTVYLQMNSLKPEDTAVYYCNAQVLVRPIQGEYGYWGQGTQVTVSS”, the “polyreactivity (PSR sort gate)” value is reported as “low polyreactivity”.
For “QVQLVDSGGGLVQAGGSLRLSCAASGFTFYLYTMGWYRPAPGKERQLVATITSDGGTNYADSVKGRFTISRDNAKNTVYLQMNSLKPEDTAVYYCNAASRRGSRKQAKYDYWGQGTQVTVSS”, the “polyreactivity (PSR sort gate)” value was “low polyreactivity”.
On to “QVQLVESGGGLVQAGGSLRLSCAASGFTFRYYAMGWYRQAPRKERELVAAIPRNGGSTYYADTVKGRFTISRDNAKNTVYLQMKSLKPEDTAVYYCAAAYYRDSDRRFNYWGQGTQVTVSS”, for which the “polyreactivity (PSR sort gate)” value is on record as “high polyreactivity”.
As for “QVQLVESGGGLVQAGGSLRLSCAASGFIFYYYAMGWYRQAPGKERELVAAISWSGGITYYADSVKGRFTISRDNAKNTVYLQMNSLKPEDTAVYYCNAVSSGDMDYWGQGTQVTVSS”, the “polyreactivity (PSR sort gate)” value is on record as “high polyreactivity”.
With “QVQLVESGGGLVQAGGSHRLSCAASGYTFARYAMGWYRQAPGKERELVAAISRSGGGTYYADSVKGRFTISRDNAKNTVYLQMNSLKPEDTAVYYCATDRVQGLGRFDYWGQGTQVTVSS”, the “polyreactivity (PSR sort gate)” value is on record as “high polyreactivity”.
As for “QVQLVESGGGLVQAGGSLRLSCAASGLIFKYYAMGWYRPAPGKERELVAAITGRGGSTYYADSVKGRFTISRDNAMNTVYLQMNSLKPEDTAVYYCARRRTYSFNPVTYDWGQGTQVTVSS”, the “polyreactivity (PSR sort gate)” value is listed as “high polyreactivity”.
“QVQLVESGGGLVQAGGSLRLSCAASGRIFQYYAMGWYRQAPGKERELVAAISRGGSTNYADSVKGRFTISRDNAKNTVYCQMNSLIPVDTAVYYCAGDEYRYYFFRPGIGYDYWGQGTQVTVSS”: the “polyreactivity (PSR sort gate)” value is on record as “low polyreactivity”.
Regarding “QVQLVESGGGLVQAGRSLRLSCAASGRIFYPYAMGWYRQAPGKERELVAAIRWSSGNTRYADSVKGRFTISRDNAKNTVYLQMNSLKPEDTAVYYCAADTTVFFYRYDYWGQGTQVTVSS”, the “polyreactivity (PSR sort gate)” value is given as “high polyreactivity”.
As for “QVQLVESGGGLVQAGGSLRLSCAATGSTFRKYAMGWYRQAPGKEREFVAAISSAGGRTYYADSVKGRFTISRDNAKNTVYLQMNSLKPEDTAVYYCNAYFRYSYDYWGQGTQVTVSS”, the “polyreactivity (PSR sort gate)” value is given as “high polyreactivity”.
In the case of “QVQLVESGGGLVQAGGSLRLSCAASGRTFAYNTMGWYRQAPGKERELVAAISTSGVRTFYADSVKGRFTISRDNAKNTVYLQMNSLKPEETAVYSYDWGQGTQVTVSS”, the “polyreactivity (PSR sort gate)” value was “low polyreactivity”.
Regarding “QVQLVESGGGLVQAGGSLRLTCAASGRTFKSYTMGWYRQAPGKEREFVAAISSRGGNTYYADSVKGRFTISRDNAKNTVYLQMNSLKPEDTAVYYCAAESSYWSFPTYDYWGQGTQVTVSS”, the “polyreactivity (PSR sort gate)” value is listed as “high polyreactivity”.
Under “QVQLVDSGGGLVQAGGSLRLSCAASGSIFFENDMGCYRQAPGKEREFVAAISLSSTSTYYADSVKGRFTISRDNAKNTVYLQMNSLKPEDTAVYYCAADAIFGWPTFDFWGQGTQVTVSS” stands “low polyreactivity”; under “QVQLVESGGGLVQAGGSLRLSCAASGSTFSRYAMGWYRQAPGKERELVAAISSSGGSTYYADSVKGRFTISRDNAKNTVYLQMNSLKPEDTAVYYCAARYYGVTRGYNYWGQGTQVTVSS”, “high polyreactivity”.
To “QVQLVESGGGLVQAGGSLRLSCAASGRIFYLYTMGWYRQAPGKERELVAAITRAGRTYYADSVKGRFTISRDNAKNTVYLQMNSLKPEDTAVYYCAAAFLSRVQGYDSWGQGTQVTVSS” belongs “high polyreactivity”; to “QVQLVESGGGLVQAGGSLRLSCAASGRTFTLYAMGWYRQAPGKERELVASITTGGRTYYADSVKGRFTISRDNAKNTVYLKMNSLKPEDTAVYYCNADRVYAWYRTYEYWGQGTEVTVSS”, “high polyreactivity”; to “QVQLVESGGGLVQAGGRLLLSCAASGLTFYEYAMGWYRQAHGKERELVADIDFNGGSTSYAYSVKGRFTISRDNAKNTVYLQMNSLKPEDTAVYYCNTRDRGDVVTGLDYSGQGTQVTVSS”, “low polyreactivity”.
“QVQLVESGGGLVQAGGSLRLSCAASGSTFPYYVMGWYRQAPGKERELVASIRSNSGRTYYADSVKGRFTISRDNAKNTVYLQMNSLKPEDTAVYYCNAGVPRYAYTYVKGYYWGQGTQVTVSS”: the “polyreactivity (PSR sort gate)” value is reported as “high polyreactivity”.
With “QVQLVESGGGLVQAGGSLRLSCAASGLTFYLYAMGWYRQAPGKERELVAAITSAGITYADSVKGRFTISRDNAKNTVYLQMNSLKPEDTAVYYCASSIDCGKCLGRRYDYWGQGSQVTVSS”, the “polyreactivity (PSR sort gate)” value is “low polyreactivity”.
Take “QVQLVESGGGLVQAGGSLRLSCAASGSTFPQYAMGWYRQAPGKERELVAAISARGDSTSYADSVKGRFTISRDNAKNTVYLQMNSLKPEDTAVYYCNAPSRNGFSVTDTPDGYDYWGQGTQVTVSS”: the “polyreactivity (PSR sort gate)” value was “low polyreactivity”.
Consider “QVQLVESGGGLVQAGGSLRLSCAASGSIFQYYGMGWYRQAPGKERELVAAISRGGSTNYADSVKGRFTISRDNAKNTVYLQMNSLKPEDTAVYYCNARTYRKAYSGYNYWGQGTQVTVSS”, for which the “polyreactivity (PSR sort gate)” value is “high polyreactivity”.
Consider “QVQLVESGGGLVQAGGSLRLSCAASGRILQVEYAMGWNIQAPGKERELVAAITESDGSTSYADSVKGRFTISRDNAKNTVYLQMNSLKPEDTAVYYCNVVRGYPNGGYDYWGQGTQVTVSS”, for which the “polyreactivity (PSR sort gate)” value is given as “low polyreactivity”.
With “QVQLVESGGGLVQAGGSHRLSCAASGYTFARNAMGCDRQAPGKDRELVAAINWSGTNTYYADSVKGRFTISRDSAMNTVYLQMNSLKPEDTAVYYCAKDLYFSGYEFDYWGQGTQVTVSS”, the “polyreactivity (PSR sort gate)” value is given as “low polyreactivity”.
Under “QVQLVESGRGLVQAGGSLRLSCAASGSTFQVYTMGWYRQAPGKEREFVASISWSGSSTYYADSVKGRFTISRDNAKNTVYLQMNSLKPEDTAVYYCAARVGSTYRRYYYWGQGTQVTVSS” stands “high polyreactivity”; under “QVQLEESGGGLVQAGGSLRLSCAASGSIFRRYARGWYRQAPGKERELVAAISRSGSSTYADSVKGRFTISRDNAKNTVYLQMNSLKPEDTAVYYCAASYAFLYYGYDSWGQGTQVTVSS”, “low polyreactivity”; under “QVQLVESGGGLVQAGGSLRLSCAASGSIFGYYTMGWYRQAPGKERELVATISRSGGSTYYADSVKGRFTISRDNAKNTVYLQMNSLKPEDTAVYYCAARSWGGYDSRGYWGQGTQVTVSS”, “high polyreactivity”.
To “QDQLVESRGGLVQAGGSLRLSCAAYGRTFIPYAMGWNSQATGKERELVAAITVRGSSTYYADSVKGRFTISRDNAKNTVYFQMNSLKPEDTAIYYCATDRRYRAFYYWGQGTQVTVSS” belongs “high polyreactivity”; to “QVQLVESGGGLVQAGGSLRLSCAASGIIFTVYAMGWDRQAPGKERELVAAISFSTGRTYYADSVKGRFTISRDNAKNTVYLQMNSLKPEDTAVYYCAASAGHTFSKPFDRGRYGYWGQGTQVTVSS”, “high polyreactivity”.
Under “QVQLVESGGGLVQAGGSLRLSCAASGITFPDYAMGWYRQAPGKERELVASISDSGGNTYYADSVKGRFTISRDNAKNTVYLQMNSLKPEDTAVYYCAVDSWYYYIVLYDYWGQGTQVTVSS” stands “high polyreactivity”.
